Here are results for 22 sequences from the DeepSol protein solubility set.

The data set can be described thus: soluble on expression in E. coli; label from the status in PepcDB or PDB records.
For “MDSQVEGKISPSQKESSSTSGLVSPSEDGPAHQKIHRDQLSVDQIKKIREERAQKRQVRRNSLISQGKDPDFPTPDLQFIERPFLPINHDNSKGLTPATIQVTQDSLDVKIMTYNTLAQTLIRRDFFPESGPALKWHKRSKVLVHELKKYRPDVVSLQEVDYNELNFWQENFHKLGFDVIFKRHEGKTHGLLVAWNNKKFQLDNDWMLDYDNILAGNVISARTRTKNIALIISLYFKGITDSSSRGIIVANTHLFWHPFGVFERLRQSYLVLQKIQEIKACSKYNGWHSLLMGDFNTEPEEPPYLAITKRPLILKGPIRAMVECSLAYRYSKKRNGEESDQDDEECDEKSRGEGHSDQPQNPKPESFTATKEEKALVNQLVALHNSLHVKGVSLYGIGYGKVHPENANGSHGEPGLSNWANTWCGLLDYIFYIEGDHNQDTRQKEPLNAFEGNNNVKIIGYLRMPCAQEMPKHSQPFEGEYASDHISLMCQIRLFFGGEKVHSLK”, the “soluble on expression in E. coli” value is on record as “not soluble”.

As to “MDSSSISSLLEDLKHSDALVREQATKKLWRIWFQQKGMYGLEKIDQSQKLLDAGEITEAEVMLTQLIQEQPDFAEAWNRRAFLYYSMGEYQKSLADCQMVIQINPVHFGALHGIGLCYAALGKYAKAIKAFKRALEIQPYSLVNQKLILECTFRLSLEHHHHHH”, the “soluble on expression in E. coli” value is given as “not soluble”.

With “MDTMRQRILVVDDDASLAEMLTIVLRGEGFDTAVIGDGTQALTAVRELRPDLVLLDLMLPGMNGIDVCRVLRADSGVPIVMLTAKTDTVDVVLGLESGADDYIMKPFKPKELVARVRARLRRNDDEPAEMLSIADVEIDVPAHKVTRNGEQISLTPLEFDLLVALARKPRQVFTRDVLLEQVWGYRHPADTRLVNVHVQRLRAKVEKDPENPTVVLTVRGVGYKAGPPTSGSHHHHHH”, the “soluble on expression in E. coli” value is listed as “soluble”.

As for “MDVHIDNQVLSGLGTPLLVHLFVPDTVMAELCPNRVPNCEGAWCQTLFSDRTGLTRVCRVFAARGMLPGRPSHRGTFTSVPVYCDEGLPELYNPFHVAALRFYDEGGLVGELQIYYLSLFEGAKRALTDGHLIREASGVQESAAAMQPIPIDPGPPGGAGIEHMPVAAAQVEHPKTYDLKQILLEITQEENRGEQRLGHAGSPALCLGLRLRAGAETKAAAETSVSKHHPALENPSNIRGSAGGEGGGGRAGTGGTVGVGSGALSRVPVSFSKTRRAIRESRALVRGIAHIFSPHALYVVTYPELSAQGRLHRMTAVTHASPATDLAEVSILGAPEREFRFLISVALRISASFREKLAMQAWTAQQEIPVVIPTSYSRIYKNSDLIREAFFTVQTRVSWESCWVKATISNAPKTPDACLWIDSHPLYEEGASAWGKVIDSRPPGGLVGAASQLVALGTDGHCVHLATTSDGQAFLVLPGGFVIKGQLALTPEERGYILARHGIRREQ”, the “soluble on expression in E. coli” value was “not soluble”.

With “MDVIKIGDIVARKSYQCDLLFRVIDIKEKNGEWEAILYGEDVRLVADAPCSDLVVIDEQEQQERKKREIELLEQSYRLFRQDYQAIKQKVEYRATGGYRVEKDFFQIPGRVLHLDGDPLYLRKCMDLYERIGVPVHGIYCEESEMPEKVGYWIEQFRPDILVITGHDSYSKSKGKVHELKAYRHSRHFVQTVKEARKKVPHLDQLIIFAGACQSHFESLIRAGANFASSPARVNIHALDPVYIVSRLSFTPFTETVDVWDVLRNTLTGEKGLGGVETKGVLRTGMPFRLIEDREENRRS”, the “soluble on expression in E. coli” value was “not soluble”.

Take “MDVKPDRVIDARGSYCPGPLMELIKAYKQAKVGEVISVYSTDAGTKKDAPAWIQKSGQELVGVFDRNGYYEIVMKKVK”: the “soluble on expression in E. coli” value is “soluble”.

For the sequence “MDVPTAISIERVVKEMKSLEITLHITPTGPSVGFANINGFNFQFIVLPSVLIARADRYLSETKSDPRIYLASNEVNNRTVRGGIFVVDNSAAPIMRAEVDICSAAGLTDSQLHMCLSNSVNDVLDLQHSWAKATAI”, the “soluble on expression in E. coli” value is “not soluble”.

For “MDVQIFPHRLLGADTTEKLLNRLEDISGVKRMVIHGQRLPPEDHPDRRIISVKGHEFELQVKTGRVLLEIEDEDTIADIKRVCEDLLPFGYDVTPGKYIRTQKTVTDEIKYGEDLDKVPEELIGLTDQNARLSERATIIKRKKEHLEHHHHHH”, the “soluble on expression in E. coli” value was “soluble”.

Regarding “MDVRSAPSNHATAVPTAQPSAPSIKSTLSKLFRAQCSDPVPLSSSSSTERIAPPRVTANYSAVVDISKTASHSKTNADTAEKNSFSWLKNKLSTVSENQQKKQAIQNFIAQVSQQYNVEEDVAKLAVAASGAYRQLRFEETQQQRVHACLQDTEALTAMIDLATRKPLTYKMVMGLDSSDCSFDPIARISDHDILTEAEQCQVVRSAFASADKVCVVTSYGIKPLGAPKSDALSPTIASVLQGFASKQHDKDFTGVFFYQKSDAIQNYYTEDKRTNISIKENDWAKAVTLFNAAVERGEIEGPKEGLK”, the “soluble on expression in E. coli” value is given as “not soluble”.

As to “MDVSFEFEHYQVRLIKSSDAVTIANYFMRNRHHLAPWEPKRSHAFFTPEGWKQRLLQLVELHKHNLAFYFVVVDKNEHKIIGTVSYSNITRFPFHAGHVGYSLDSEYQGKGIMRRAVNVTIDWMFKAQNLHRIMAAYIPRNEKSAKVLAALGFVKEGEAKKYLYINGAWEDHILTSKINDDWKP”, the “soluble on expression in E. coli” value is “soluble”.

“MDVSLPCIKIQVQTRYIEEQSNPEYQRFVFAYLITIKNLSSQTVQLMSRRWLITDADGKQTVVEGDGVVGEQPRIKANDEYTYSSGTALDTPVGVMQGQYLMIDEQGESFTVEIEPFRLAVPHVLNLEHHHHHH”: the “soluble on expression in E. coli” value is reported as “soluble”.

On to “MDWMPLGDYETFRHWSGKPRAWGPQESGWRAWFGGKIVDGLCEVLDEHLAVRRRGVPAAIGCVPWLSSEAVAETLLALSVFCVVIDKGTSFPSRLRNPDKGFPNVALLRLRDMAPSEHGSRCSSARGRLCLSMS”, for which the “soluble on expression in E. coli” value is given as “not soluble”.

For “MDYKFPKDFMFGTSTASYQIEGGWNEDGKGENIWDRLVHTSPEVIKDGTNGDIACDSYHKYKEDVAIIKDLNLKFYRFSISWARIAPSGVMNSLEPKGIAYYNNLINELIKNDIIPLVTMYHWDLPQYLQDLGGWVNPIMSDYFKEYARVLFTYFGDRVKWWITFNEPIAVCKGYSIKAYAPNLNLKTTGHYLAGHTQLIAHGKAYRLYEEMFKPTQNGKISISISGVFFMPKNAESDDDIETAERANQFERGWFGHPVYKGDYPPIMKKWVDQKSKEEGLPWSKLPKFTKDEIKLLKGTADFYALNHYSSRLVTFGSDPNPNFNPDASYVTSVDEAWLKPNETPYIIPVPEGLRKLLIWLKNEYGNPQLLITENGYGDDGQLDDFEKISYLKNYLNATLQAMYEDKCNVIGYTVWSLLDNFEWFYGYSIHFGLVKIDFNDPQRTRTKRESYTYFKNVVSTGKP”, the “soluble on expression in E. coli” value was “soluble”.

In the case of “MDYKVSRSGEIVEGEVEDSEKIDLPPGFRFHPTDEELITHYLRPKVVNSFFSAIAIGEVDLNKVEPWDLPWKAKLGEKEWYFFCVRDRKYPTGLRTNRATKAGYWKATGKDKEIFKGKSLVGMKKTLVFYKGRAPKGVKTNWVMHEYRLEGKFAIDNLSKTAKNECVISRVFHTRTDGTKEHMSVGLPPLMDSSPYLKSRGQDSLAGTTLGGLLSHVTYFSDQTTDDKSLVADFKTTMFGSGSTNFLPNIGSLLDFDPLFLQNNSSVLKMLLDNEETQFKKNLHNSGSSESELTASSWQGHNSYGSTGPVNLDCVWKF”, the “soluble on expression in E. coli” value is recorded as “soluble”.

In the case of “MDYLTTNKIAWDARTRVHLTSDFYDVEGFLSGKISLTEIELNELAVAGKSLLHLQCHFGLDTLSWARMGAKVTGVDLSEVAIAEACKLAQQTQLSAEFICSDVYSVVGKVEPQDIVFTSYGAIVWLPDLTLWAQTIAACLKPGGQFYMAEFHPAQQLFDGYSYFNRGEPDIEQEGTYTENASDDQQTLMCWSHSLSEVINALLQAGLELVFFHEFAFSPYNCFEGLEAQADGRYVLIHQGQQVPLVYSISARKPVLEHHHHHH”, the “soluble on expression in E. coli” value was “soluble”.

“MDYLVKALAYDGKVRAYAARTTDMVNEGQRRHGTWPTASAALGRTMTASLMLGAMLKGDDKLTVKIEGGGPIGAIVADANAKGEVRAYVSNPQVHFDLNEQGKLDVRRAVGTNGTLSVVKDLGLREFFTGQVEIVSGELGDDFTYYLVSSEQVPSSVGVGVLVNPDNTILAAGGFIIQLMPGTDDETITKIEQRLSQVEPISKLIQKGLTPEEILEEVLGEKPEILETMPVRFHCPCSKERFETAILGLGKKEIQDMIEEDGQAEAVCHFCNEKYLFTKEELEGLRDQTTR”: the “soluble on expression in E. coli” value is given as “soluble”.

For “MDYQQDEYDEPFRIHLNLDNLTEDEAKARFSLIYDQHAQTMKRRETNDYLRPICIDGTDVSNKLNHIIRKNMDLFPVDKSIFNMRAITMALWYFISRGHAAVVFLPTNLRDFAQKCSDPHELSLLAKLELIVFDESTALNPSSAVLLSKTVATWAQNNDGCIVGSRKKYGLLGQRYSELIDRVTNTLISPAFTPDNELEICDLVRLVLAADEVRRNDENSNCMGYQLLASDQVVIMSKLAKMIGKDSMIDLCNRARELNTSTNPNYRNIFNNQKQSTSMGRVYQSPYHFNDPFLPDYVAPPPPIALESVAKPTRIGHRHSIYRVGEDKSTELENGDNRRKAVYRGALIDALQPMFGLEKATALVNGNPDQNEINDLIELGINQ”, the “soluble on expression in E. coli” value was “not soluble”.

Regarding “MDYTKYLAGRANWIKGSALADVMKKASELQKKGVKLISLAAGDPDPELIPRAVLGEIAKEVLEKEPKSVMYTPANGIPELREELAAFLKKYDHLEVSPENIVITIGGTGALDLLGRVLIDPGDVVITENPSYINTLLAFEQLGAKIEGVPVDNDGMRVDLLEEKIKELKAKGQKVKLIYTIPTGQNPMGVTMSMERRKALLEIASKYDLLIIEDTAYNFMRYEGGDIVPLKALDNEGRVIVAGTLSKVLGTGFRIGWIIAEGEILKKVLMQKQPIDFCAPAISQYIALEYLKRGYFEKYHLEGALLGYKEKRDIMLKALENHLPNAEFTKPIAGMFVMFFLPEGADGISFANELMEREGVVVVPGKPFYTDESGKNAIRLNFSRPSKEEIPIGIKKLAKLYKEKFGE”, the “soluble on expression in E. coli” value is given as “soluble”.

For the sequence “MEADRKADNGNAGFSLVCHPEERITYRVGNKVICCLDGSRIGIQFETSTAGETYEVYHCVLESKSFLEKMIVLEHTIPFFLPLSDLENDLLFSNAKKFIDNVGDLLQAYVDRKEQVRLIKELFGHQISEIYHSLPYHMIEFSMDDCDCKFVVSLRYGDLLCELPTKVRILVWPMHHLSKKQCTSPGSPAIPVRLPFAEDAFRIQSLPEAYAEIMPNMPNEIRQLFQTSPS”, the “soluble on expression in E. coli” value was “soluble”.

Consider “MEAGFKRKVDYLDRPERSEVLSPEDFLQAMPIGKTASILDLGAGTGFLTIPAAKLVDNTVFALDLDAKMLELIESKAKEAGLANVETLEASMDDIPLEANSVDVVLASLVLHEADSLADVLREVSRVVKTGGYFASLEFDTKGTDLKGPPMEIQISAEKLKEELAGFGFEVVKNWQLDEGMYVSIAVKKLEHHHHHH”, for which the “soluble on expression in E. coli” value is “not soluble”.

As for “MEAGGLPLELWRMILAYLHLPDLGRCSLVCRAWYELILSLDSTRWRQLCLGCTECRHPNWPNQPDVEPESWREAFKQHYLASKTWTKNALDLESSICFSLFRRRRERRTLSVGPGREFDSLGSALAMASLYDRIVLFPGVYEEQGEIILKVPVEIVGQGKLGEVALLASIDQHCSTTRLCNLVFTPAWFSPIMYKTTSGHVQFDNCNFENGHIQVHGPGTCQVKFCTFKNTHIFLHNVPLCVLENCEFVGSENNSVTVEGHPSADKNWAYKYLLGLIKSSPTFLPTEDSD”, the “soluble on expression in E. coli” value was “soluble”.

For the sequence “MEAHNQFLKTFQKERHDMKEAEKDEILLMENSRRFVMFPIKYHEIWAAYKKVEASFWTAEEIELAKDTEDFQKLTDDQKTYIGNLLALSISSDNLVNKYLIENFSAQLQNPEGKSFYGFQIMMENIYSEVYSMMVDAFFKDPKNIPLFKEIANLPEVKHKAAFIERWISNDDSLYAERLVAFAAKEGIFQAGNYASMFWLTDKKIMPGLAMANRNICRDRGAYTDFSCLLFAHLRTKPNPKIIEKIITEAVEIEKEYYSNSLPVEKFGMDLKSIHTYIEFVADGLLQGFGNEKYYNAVNPFEFMEDVATAGKTTFFEKKVSDYQKASDMSKSATPSKEINFDDDF”, the “soluble on expression in E. coli” value is “soluble”.
